Measured values as given in patent US20250027068.

Biological target: pooled human IgG (human IgG1,2,3 and 4)

| Protein | Enzyme Activity Endpoint Assay (purified): Fab′2 | Enzyme Activity Endpoint Assay (purified): Fc | Enzyme Activity Endpoint Assay (purified): IgG | Enzyme Activity Endpoint Assay (purified): scIgG | Enzyme Activity Endpoint Assay: Fab′2 | Enzyme Activity Endpoint Assay: Fc | Enzyme Activity Endpoint Assay: IgG | Enzyme Activity Endpoint Assay: scIgG |
| --- | --- | --- | --- | --- | --- | --- | --- | --- |
| PRT-450 (protein) MVTSVWTKGVTPPTDFRKIVDGNIAYYHAPYKAGQGWYDITKAFDGGDDLLCGAATAGNMLHWWFDQNKDQIEAYLKEHPEKQKINFNGEQMFDVKEAIDTKDDQTNSELFNYFKEKAFPYLSTKHLGVFPDHVLDMFINGYRLSLTNHGPTPVKEGSKDPRGGIFDAVFTRGDQSKLLTSRHDLKNKTLKEISDLIKQELTEGKALALSHTYANVRINHVINLWGADFDSNGNLEAIYVTDSDSNASIGMKKYFVGVNSAGKVAISAKEIEDDNIGAQVLGLFTLSTGQDIWNQTNLEHHHHHH | 300 ng/µL | 282 ng/µL | 227 ng/µL | 481 ng/µL | – | – | – | – |
| PRT-462 (protein) MVTSVWTKGVTPPTDFRKIVDGNIAYYHAPYKAGQGWYDITKAFDGGDDLLCGAATAGNMLHWWFDQNKDQIERYLKEHPEKQKINFNGEQMFDVKEAIDTKDSQTNSELFNYFKEKAFPYLSTKHLGVFPDHVLDMFINGYRLSLTNHGPTPVKEGSKDPRGGIFDAVFTRGDQSKLLTSRHDLKNKTLKEISDLIKQELTEGKALGLSHTYANVRINHVINLWGADFDSEGNLKAIYVTDSDSNASIGMKKYFVGVNSAGKVAISAKEIKEDNIGAQVLGLFTLSTGQDIWNQTNLEHHHHHH | 0 ng/µL | 0 ng/µL | 0 ng/µL | 0 ng/µL | – | – | – | – |
| PRT-511 (protein) MITSVWTKGVTPPAKFRKIVDGNIAYYHAPYVANQGWYDITKTFNGKDDLLCGAATAGNMLHWWFDQNKEEIEAYLKKHPEKQKIMFGDQELLDVRKVINTKDSQTNSALFNYFKDKAFPNLSARRLGVMPDLVLDMFINGYYLNVYKTQTTDVNRTYQTKDRRGGIFDAVFTRGDQSKLLTERHDLKNKTLKEISDLIKQELTEGKALGLSHTYANVRINHVINLWGADFDSNGNLEAIYVTDSDSNASIGMKKYFVGVNSAGKVAISAKEIKEDNIGAQVLGLFTLSTGQDIWNQTNLEHHHHHH | 935 ng/µL | 312 ng/µL | 62 ng/µL | 0 ng/µL | – | – | – | – |
| PRT-501 (protein) MVTSVWTKGVTPPADFTQGEDVFHAPYVANQGWYDITKTFNGKDDLLCGAATAGNMLHWWFDQNKEYIEAYLKKHPEKQKIMFGDQELLDVRKAINTKGSQKNSELFNYFRDKAFPNLSARRLGVMPDLVLDMFINGYYLNVTKTQTTDVNRTYQEKDKRGGIFDAVFTRGDQSKLLTSRHDLKNKGLKEISDLIKQELTEGKALGLSHTYANVRINHVINLWGADFDSDGNLKAIYVTDSDSNASIGMKKYFVGVNSAGKVAISAKEIKEDNIGAQVLGLFTLSTGQDIWNQTNLEHHHHHH | 0 ng/µL | 0 ng/µL | 1950 ng/µL | 0 ng/µL | – | – | – | – |
| PRT-489 (protein) MVTSVWTKGVTPPANFTQGEDVFHAPYVANQGWYDITKTFNGKDNLLCGAATAGNMLHWWFDQNKDQIERYLKEHPEKQKIIFNNQELFDLKAAIDTKDSQTDSKLFEYFKEKAFPYLSTKHLGVFPDHVLDMFINGYRLSLTNHGPTPVKEGSKDKRGGIFDAVFTRGVQSKLLTSRHDLKNKTLKEISDLIKQELTEGKALGLSHTYANVRINHVINLWGADFDSEGNLKAIYVTDSDTNASIGMKKYFVGVNSAGKVAISAKEIKEDNIGAQVLGLFTLSTGQDIWNQTNLEHHHHHH | 0 ng/µL | 0 ng/µL | 0 ng/µL | 0 ng/µL | – | – | – | – |
| PRT-492 (protein) MVTSVWTKGVTPPTDFRKIVDGNIAYYHAPYKAGQGWYDITKAFDGGDNLLCGAATAGNMLHWWFDQNKEQIENYLKKHPEKQKIIFNNQELFDLKAAIDTKDSQTNSELFNYFKEKAFPYLSTKHLGVFPDHVIDMFINGYRLSLTNHGPTPVKRGSKDKRGGIFDAVFTRGVQSKLLTNRHDLKNKTLKEISDLIKQELTEGKALGISHTYANVRINHVINLWGADFDAEGNLEAIYVTDSDTNASIGMKKYFVGVNSNGKVAISAKEIEEDNIGAQVLGLFTLSTGQDIWNQTNLEHHHHHH | 54 ng/µL | 207 ng/µL | 362 ng/µL | 1020 ng/µL | – | – | – | – |
| PRT-517 (protein) MITSVWTKGVTPPTDFIKGEDVFHAPYKAGQGWYDITKAFDGGDDLLCGAATAGNMLHWWFDQNKEEIEAYLKKHPEKQKIMFGDQELLDVRKVINTKDSQTNSALFNYFKDKAFPNLSARRLGVMPDLVLDMFINGYYLNVYKTQTTDVNRQEQTKDRRGGIFDAVFGRGDQTKLLTERHDLKNKTLKEISDLIKQELTEGKALGLSHTYANVRINHVINLWGADFDSNGNLEAIYVTDSDSNASIGMKKYFVGVNSAGKVAISAKEIKEDNIGAQVLGLFTLSTGQKIWNKTNLEHHHHHH | 0 ng/µL | 0 ng/µL | – | 22 ng/µL | – | – | – | – |
| PRT-515 (protein) MITSVWTKGVTPPTDFIKGEDVFHAPYKAGQGWYDITKAFDGGDDLLCGAATAGNMLHWWFDQNKEEIEAYLKKHPEKQKIMFGDQELLDVRKVINTKDSQTNSALFNYFKDKAFPNLSARRLGVMPDLVLDMFINGYYLNVYKTQTTDVNRQEQTKDRRGGIFDAVFGRGDQTKLLTERHDLKNKTLNEISQLIKQELTEGKALGLSHTYANVRINHVINLWGADFDAEGNLEAIYVTDSDSNASIGMKKYFVGVNSAGKVAISAKEIKEDNIGAQVLGLFTLSTGQKIWNKTNLEHHHHHH | 0 ng/µL | 0 ng/µL | 0 ng/µL | 0 ng/µL | – | – | – | – |
| PRT-470 (protein) MVTSVWTKGVTPPTDFIYGEDVLHAPYKAGQGWYDITKTFNGKDDLLCGAATAGNMLHWWFDQNKEQIENYLKKHPEKQKINFNGEQMFDVKEAIDTKDSQLDSKLFEYFKEKAFPYLSTKHLGVFPDHVIDMFINGYRLSLTNHGPTPVKRGSKDPRGGIFDAVFTRGDQSKLLTNRHDFKEKTLKEISDLIKQELTEGKALGISHTYANVRINHVINLWGADFDAEGNLEAIYVTDSDSNASIGMKKYFVGVNSNGKVAISAKEIEEDNIGAQVLGLFTLSTGQDIWNQTNLEHHHHHH | 1080 ng/µL | 363 ng/µL | 0 ng/µL | 0 ng/µL | – | – | – | – |
| PRT-498 (protein) MVTSVWTKGVTPPTDFRKIVDGNIAYYHAPYKAGQGWYDITKAFDGGDDLLCGAATAGNMLHWWFDQNKEYIEAYLKKHPEKQKIMFGDQELLDVRKAINTKGSQKNSELFNYFRDKAFPNLSARRLGVMPDLVLDMFINGYYLNVTKTQTTDVNRTYQEKDKRGGIFDAVFTRGDQSKLLTSRHDLKNKGLKEISDLIKQELTEGKALGLSHTYANVRINHVINLWGADFDSDGNLKAIYVTDSDSNASIGMKKYFVGVNSAGKVAISAKEIKEDNIGAQVLGLFTLSTGQDIWNQTNLEHHHHHH | 488 ng/µL | 318 ng/µL | 325 ng/µL | 124 ng/µL | – | – | – | – |
| PRT-667 (protein) MQITSVWTKGVTPLTPEQFRYNNEDVFHAPYLAHQGWYDITKAFNGKDNLLCGAATAGNMLHWWFDQNKEEIEAYLKKHPEKQKIIFNNQELFDLRKAINTKDSQTNSQLFNYFRDKAFPNLSARQLGVMPDLVLDMFINGYYLNLNKTQSTDVNRPYQDKDKRGGIFDHVFTRGDQTTLLTARHDLKNKTLNDISQLIKQELQEGKALALSHTYANVSISHVINLWGADFNAEGNLEAIYVTDSDSDASIGMKKYFVGKNASGHVAISAKKIEGENIGAQVLGLFTLSSGKEIWQKLSLEHHHHHH | 61 ng/µL | 197 ng/µL | 279 ng/µL | 896 ng/µL | – | – | – | – |
| PRT-482 (protein) MVTSVWTKGVTPPTDFIKGEDVFHAPYKAGQGWYDITKTFNGKDNLLCGAATAGNMLHWWFDQNKDQIEAYLKEHPEKQKIIFNNQELFDLKAAIDTKDDQTNSKLFEYFKEKAFPYLSTKHLGVFPDHVLDMFINGYRLSLTNHGPTPVKEGSKDKRGGIFDAVFTRGVQSKLLTSRHDFKEKTLKEISDLIKQELTEGKALALSHTYANVRINHVINLWGADFDSNGNLEAIYVTDSDTNASIGMKKYFVGVNSAGKVAISAKEIEDDNIGAQVLGLFTLSTGQDIWNQTNLEHHHHHH | – | – | – | – | 261 ng/µL | 322 ng/µL | 146 ng/µL | 738 ng/µL |
| PRT-485 (protein) MVTSVWTKGVTPPANFTQGEDVFHAPYKANQGWYDITKTFNGKDNLLCGAATAGNMLHWWFDQNKDQIEAYLKEHPEKQKIIFNNQELFDLKAAIDTKDDQTNSKLFEYFKEKAFPYLSTKHLGVFPDHVLDMFINGYRLSLTNHGPTPVKEGSKDKRGGIFDAVFTRGVQSKLLTSRHDLKNKTLKEISDLIKQELTEGKALALSHTYANVRINHVINLWGADFDSNGNLEAIYVTDSDTNASIGMKKYFVGVNSAGKVAISAKEIEDDNIGAQVLGLFTLSTGQDIWNQTNLEHHHHHH | 0 ng/µL | 0 ng/µL | 1400 ng/µL | 0 ng/µL | – | – | – | – |
| PRT-688 (protein) MQITSVWTKGVTPLTMDDFTINNEDVIHAPYVANQGWYDITKTFNGKDNLLCGAATAGNMLHWWFDQNKEEIERYLKKHPEKQKIIFNNQELFDLKEAINTKDSQTDSKLFNYFRDKAFPNLSARQLGVMPDLVLDMFINGYYLNVFKTQSTDVNRPYDTKDKRGGIFDHVFTRGDQSTLLTARHDLKNKTLKEISDIIKQELTEGKALALSHTYANVSISHVINLWGADFNAEGNLEAIYVTDSDANASIGMKKYYVGVNSHGKVAISAKKIEGENIGAQVLGLFTLSSGKDIWQKLSLEHHHHHH | 0 ng/µL | 0 ng/µL | 1950 ng/µL | 0 ng/µL | – | – | – | – |
